Data reported in patent US6495664.

Tested on: GFP mutant K8 (-2M, -1G, M1R, S2R, K3R, G4A, E5S, E6I, L7I, S65A, K79R, E90N, N149K, V163A, I167T)

Substance: mouse recombinant protein kinase A catalytic subunit (Calbiochem #539-487)
- apparent Km of phosphorylation, measured by 32P incorporation: an apparent Km of 9 µM
- estimated Km of phosphorylation, based on quenching alone: an estimated Km of 7.7 µM
